Results reported in publication PMC8770391 (Biosensors & Bioelectronics, 2022).
Numbering of substitutions follows the chain as printed.

B1: detection antibody against the SARS-CoV-2 antigen (antibody, V domains shown)
VH: EVQLVESGGGLVQPGGSLRLSCAASGFTFSTYAMSWVRQAPGKGLEWVSGITGSGGATDYADSVKGRFTISRDNSKNTLYLQMNSLRAEDTAVYYCARINYRAVWGMDYWGQGTLVTVSS
VL: DIQMTQSPSSLSASVGDRVTITCRASQNVSSYLAWYQQKPGKAPKLLIYGASNLASGVPSRFSGSGSGTDFTLTISSLQPEDFATYYCQQGANAPLTFGQGTKVETK
B2: reporter antibody against the SARS-CoV-2 antigen (antibody, V domains shown)
VH: EVQLVESGGGLVQPGGSLRLSCAASGFTFANNAMSWVRQAPGKGLEWVSGINGYDGDTYYADSVKGRFTISRDNSKNTLYLQMNSLRAEDTAVYYCARTYYSYAMDYWGQGTLVTVSS
VL: B1 VL with V29I, G50W, N93Q, A94I, T106I

Biological target: SARS-CoV-2 antigen (nucleocapsid protein) (SARS-CoV-2; strain of the recombinant …, UniProt P0DTC9)
Experiment: ELISA

| Binder | Kd [nM] |
| --- | --- |
| B1 | 0.66 |
| B2 | 0.69 |
